# B1: Anti-human CD40 mAb clone #1E10-H2 (antibody, V domains shown)
# VH: QVQLQQSGAELMKPGASVKISCKATGYTFSSYWIEWIKQRPGHVLEWIGEILPGSGSANYNERFKGKATFTADTSSNTAYMQLTSLTSEDSAVYYCARLRYYGSSPWFAYWGQGTLVTVSA
# VL: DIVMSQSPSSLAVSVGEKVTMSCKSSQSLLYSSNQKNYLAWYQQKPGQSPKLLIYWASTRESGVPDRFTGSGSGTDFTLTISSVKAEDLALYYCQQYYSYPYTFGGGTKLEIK
# notes: Mouse hybridoma monoclonal antibody (Balb/c), purified; also called anti-human CD40 agonistic mAb (clone #1E10-H2)
# B2: Anti-human CD40 mAb clone #2G9-B11 (antibody, mouse IgG1, V domains shown)
# VH: EVQLVESGGGLVKPGGSLKLSCAASGFSFSSYAMSWVRQTPEKRLEWVATISSGGDYTYYPDSVKGRFTISRDNAKNTLYLQMTSLRSEDTAMYYCARRNHFTYWGQGTLVTVSA
# VL: DIVMTQSHKFMSTSVGDRVSITCKASQDVVTSVAWYQQKPGQSPKLLIYWTSTRHTGVPDRFTGSGSGTDFTLTISNVQSEDLADYFCQQYSSYPLTFGAGTKLELK
# notes: Mouse hybridoma monoclonal antibody (Balb/c), purified; also called anti-CD40 2G9-B11
# Target: human CD40 protein (human, UniProt P25942 21-193, limits assumed)
# Assay: ELISA screening of hybridoma wells against human CD40 protein
# Procedure: Antibodies were created by electrofusion of human CD40-immunized mouse splenocytes (Balb/c strain) with SP2/0-A14 cells (ATCC) (Immunization procedure; dose, adjuvants, time course). Fused cells were seeded into 96-well plates and ELISA screening was conducted to identify wells that contain antibodies which interact with the human CD40 protein. Positive wells were further expanded and followed a limited dilution to isolate monoclonal hybridomas. Purified antibodies were used to test their ability to trigger CD40 signaling by an in-house created reporter system. Basically, an engineered 293T cell line was transduced to stably express the human CD40 protein. When testing the agonistic functions of CD40 antibodies, DNA plasmids of an NF-kB-driven luciferase reporter and Fc-gamma receptors were transiently transfected into established CD40-293T cells. Antibodies to be tested were added to the culture and incubated for 24 hours. Treated cells were harvested, lysed and analyzed on a plate reader for the activity of luciferase. Anti-human CD40 mAb clone #1E10-H2 and clone #2G9-B11 were tested binding to and activating human CD40. The sequences of the IgG heavy chain and light chain variable domains of anti-human CD40 agonistic mAb clone #1E10-H2 are shown in FIG. 1.
# human CD40 protein, sequence (P25942 21-193 limits assumed): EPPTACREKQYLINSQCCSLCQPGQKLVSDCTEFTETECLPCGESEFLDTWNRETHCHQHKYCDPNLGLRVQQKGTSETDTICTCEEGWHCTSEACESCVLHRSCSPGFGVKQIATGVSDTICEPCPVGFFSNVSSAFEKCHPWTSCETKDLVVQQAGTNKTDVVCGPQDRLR
row,Binder,binding result
1,B1,binds
2,B2,binds

# Source: patent publication US20210115149A1 (ABVISION, published 2021)
